Measurements published in publication PMC5155159.

Experiments:
[1] = molecular target: T1, Dicer TN (catalytically inactive), without ectopic TRBP;TRBP full length (D1-D2-D3) (UniProt Q9UPY3+Q15633); assay: single-molecule TIRF, two-color; details: amine-modified U69 (dye), 20 mM Tris pH 8.0, 200 mM KCl, 0.2 mM EDTA, glucose oxidase/catalase oxygen scavenger, 1 mM Trolox, 200 pM labelled RNA (200 nM in Methods), Mg2+ where …
[2] = molecular target: Dicer TN (catalytically inactive), without ectopic TRBP (UniProt Q9UPY3); assay: single-molecule TIRF; details: amine-modified U69 (dye), 20 mM Tris pH 8.0, 200 mM KCl, 0.2 mM EDTA, glucose oxidase/catalase oxygen scavenger, 1 mM Trolox, 200 pM labelled RNA (200 nM in Methods), Mg2+ where …
[3] = molecular target: T1, Dicer TN (catalytically inactive), without ectopic TRBP;TRBP full length (D1-D2-D3); assay: single-molecule TIRF; details: amine-modified U69 (dye), 20 mM Tris pH 8.0, 200 mM KCl, 0.2 mM EDTA, glucose oxidase/catalase oxygen scavenger, 1 mM Trolox, 200 pM labelled RNA (200 nM in Methods), Mg2+ where …
[4] = molecular target: T2, TRBP recombinant (UniProt Q15633); assay: single-molecule TIRF; details: amine-modified U69 (dye), 20 mM Tris pH 8.0, 200 mM KCl, 0.2 mM EDTA, glucose oxidase/catalase oxygen scavenger, 1 mM Trolox, 200 pM labelled RNA (200 nM in Methods), Mg2+ where …
T2 sequence: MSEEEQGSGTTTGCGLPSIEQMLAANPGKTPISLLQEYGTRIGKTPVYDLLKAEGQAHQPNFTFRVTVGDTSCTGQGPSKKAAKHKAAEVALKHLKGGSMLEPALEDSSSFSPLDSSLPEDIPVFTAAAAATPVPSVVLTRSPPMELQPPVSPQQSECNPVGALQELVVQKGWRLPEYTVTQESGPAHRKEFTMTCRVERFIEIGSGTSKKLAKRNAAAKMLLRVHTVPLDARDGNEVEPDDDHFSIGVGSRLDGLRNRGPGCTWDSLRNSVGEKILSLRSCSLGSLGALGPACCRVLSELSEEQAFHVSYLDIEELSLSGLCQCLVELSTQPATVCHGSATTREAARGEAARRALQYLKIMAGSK

[5] = molecular target: Dicer TN (catalytically inactive), without ectopic TRBP (UniProt Q9UPY3); assay: single-molecule TIRF competition; details: 1 uM competitor tRNA; WT or TN form not given; amine-modified U69 (dye); 20 mM Tris pH 8.0, 200 mM KCl, 0.2 mM EDTA, glucose oxidase/catalase oxygen scavenger, 1 mM Trolox; 200 pM labelled RNA (200 nM in Methods); Mg2+ where …
[6] = molecular target: Dicer TN (catalytically inactive), without ectopic TRBP;TRBP D2-D3 (UniProt Q9UPY3+Q15633); assay: single-molecule TIRF competition; details: 1 uM competitor tRNA; WT or TN form not given; amine-modified U69 (dye); 20 mM Tris pH 8.0, 200 mM KCl, 0.2 mM EDTA, glucose oxidase/catalase oxygen scavenger, 1 mM Trolox; 200 pM labelled RNA (200 nM in Methods); Mg2+ where …
[7] = molecular target: Dicer TN (catalytically inactive), without ectopic TRBP;TRBP D3 (UniProt Q9UPY3+Q15633); assay: single-molecule TIRF competition; details: 1 uM competitor tRNA; WT or TN form not given; amine-modified U69 (dye); 20 mM Tris pH 8.0, 200 mM KCl, 0.2 mM EDTA, glucose oxidase/catalase oxygen scavenger, 1 mM Trolox; 200 pM labelled RNA (200 nM in Methods); Mg2+ where …
[8] = molecular target: T1, Dicer TN (catalytically inactive), without ectopic TRBP;TRBP full length (D1-D2-D3); assay: single-molecule TIRF competition; details: 1 uM competitor tRNA; WT or TN form not given; amine-modified U69 (dye); 20 mM Tris pH 8.0, 200 mM KCl, 0.2 mM EDTA, glucose oxidase/catalase oxygen scavenger, 1 mM Trolox; 200 pM labelled RNA (200 nM in Methods); Mg2+ where …
[9] = equivalent IP amount, WT or TN form not given

Q: How did the binding signal (binding events) ([1]; 2.9x fewer than N1, 55.6% long, 25.3 +/- 2.9 s, short 3.7 +/- 0.8 s) turn out when “UGAGGUAGUAGGUUGUAUAGUUUUAGGGUCACACCCACCACUGGGAGAUAACUAUACAAUCUACUGUCUUUC [pre-let-7a-1 3' 1nt]” was run?
A: The binding signal (binding events) was 2750.

Q: For “UGAGGUAGUAGGUUGUAUAGUUUUAGGGUCACACCCACCACUGGGAGAUAACUAUACAAUCUACUGUCUUUCU [pre-let-7a-1 3' 2nt-biotin]”, which binding signal (binding events) ([1]; 3'-biotin) is on record?
A: The binding signal (binding events) was 2340.

Q: What about the binding signal (binding events) ([2]; five times more than Dicer-TRBP, 56.7% long, 34.0 +/- 5.6 s, 3'-biotin) of the same sequence?
A: Its binding signal (binding events) is 1780.

Q: What about the binding signal (binding events) ([3]; 14.2% long, 27.8 +/- 2.2 s, short 3.7 +/- 1.3 s, 85.8%, 3'-biotin) of the same sequence?
A: Its binding signal (binding events) is 341.

Q: And the binding signal (s (dwell time)) ([4]; no noticeable difference from N1, 3'-biotin)?
A: Its binding signal (s (dwell time)) is 120.

Q: Which results are given for “UGAGGUAGUAGGUUGUAUAGUUUUAGGGUCACACCCACCACUGGGAGAUAACUAUACAAUCUACUGUCUUUCU [pre-let-7a-1 3' 2nt (standard)]”?
A: binding signal (binding events) ([1]; with N2 at equal concentration, 57.7% long binding): 7410; binding signal (s (long dwell time)) ([1]; with N3, 54.7% long, short 1.4 +/- 0.3 s): 17; binding signal (binding events) ([1]; with N4, long 19.1 s, short 3.0 +/- 1.05 s, 54.0%): 8050; binding signal (% inhibition of binding) [5]: 77.9; binding signal (% inhibition of binding) [6]: 29; binding signal (% inhibition of binding) [7]: 83; binding signal (% inhibition of binding) [8]: 6.1; binding signal (s (long dwell time)) ([2]; 43.1% long, short 2.8 +/- 0.7 s, 56.9%, panel assignment from figure order): 21.9; binding signal (bound spots per field) [2, 9]: 58; binding signal (s (long dwell time)) ([3]; 48.1% long, short 1.5 +/- 0.4 s, 51.9%): 13.9; binding signal (bound spots per field) [3, 9]: 781; binding signal (s (dwell time)) ([4]; 200 pM RNA): 120

Q: How did the binding signal (binding events) ([1]; 2.5x fewer than N1, 31.0% long, 11.0 +/- 2.3 s, short 1.2 +/- 0.2 s) turn out when “UGAGGUAGUAGGUUGUAUAGUUUUAGGGUCACACCCACCACUGGGAGAUAACUAUACAAUCUACUGUCUUUCUUUUUUUUUUUUUUUUUUUUUUUUUUUUUUUUUUUUUUUUUUUUUUUUU [pre-let-7a-1 3' U49]” was run?
A: Its binding signal (binding events) is 2040.

Q: What about the binding signal (s (dwell time)) ([4]; no difference from N1) of the same sequence?
A: The binding signal (s (dwell time)) was 120.
